Data: US20220402983A1 (Janssen / Centocor, published 2022)
*1 amine or outer side, *2 acyl side, *3 side chain or, on linkers, in order; H or OH if unused. Bridges are numbered along the chain shown (N, C = ends). Where no end group is shown, it is not given here. [ ]: non-standard residue; d: D form. The star is where a group is joined. Phe(4-OMe) = COc1ccc(C[C@H](N[*:1])C(=O)[*:2])cc1; Trp(7-Me) = Cc1cccc2c(C[C@H](N)C(=O)O)c[nH]c12; 2Nal = N[C@@H](Cc1ccc2ccccc2c1)C(=O)O; AEF = NCCOc1ccc(C[C@H](N)C(=O)O)cc1; αMeF = C[C@](N)(Cc1ccccc1)C(=O)O; NMeβAla = CN(CCC(=O)[*:2])[*:1]; Pen = CC(C)(S)[C@H](N)C(=O)O; αMeK = C[C@](N)(CCCCN)C(=O)O; 3Quin = not defined here; Ac5c = NC1(C(=O)O)CCCC1; Thp = NC1(C(=O)O)CCOCC1; Piv = CC(C)(C)C(=O)*; Propionyl = CCC(=O)*; Tfa = O=C(C(F)(F)F)*

T1: human IL-23R (interleukin-23 receptor) (human, UniProt Q5VWK5 24-629)
T1 sequence (looked up): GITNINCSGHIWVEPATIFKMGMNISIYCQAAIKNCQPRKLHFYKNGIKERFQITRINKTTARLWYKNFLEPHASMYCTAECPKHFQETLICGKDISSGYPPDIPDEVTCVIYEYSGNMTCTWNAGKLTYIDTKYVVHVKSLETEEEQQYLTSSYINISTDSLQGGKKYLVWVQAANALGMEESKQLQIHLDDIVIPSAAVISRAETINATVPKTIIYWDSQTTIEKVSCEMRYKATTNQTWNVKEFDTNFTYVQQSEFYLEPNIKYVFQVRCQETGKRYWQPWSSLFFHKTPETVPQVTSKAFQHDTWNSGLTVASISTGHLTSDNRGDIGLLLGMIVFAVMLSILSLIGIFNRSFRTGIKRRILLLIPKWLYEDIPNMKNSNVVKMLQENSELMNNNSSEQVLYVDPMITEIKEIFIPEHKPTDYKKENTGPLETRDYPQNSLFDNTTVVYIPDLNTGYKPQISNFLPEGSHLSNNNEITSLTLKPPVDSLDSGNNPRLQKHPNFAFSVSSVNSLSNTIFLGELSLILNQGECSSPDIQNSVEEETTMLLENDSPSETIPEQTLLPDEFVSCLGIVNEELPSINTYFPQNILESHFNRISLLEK

B1: Compound No. 1 (peptide)
peptide: Ac-[Pen]NT[Trp(7-Me)]K(Ac)[Pen][AEF][3Quin][αMeK]K(Ac)N[dL]-NH2
modifications: disulfide 1-6; reading uncertain; also: printed as Ac-[Pen]-N-T-[W(7-Me)]-[Lys(Ac)]-[Pen]-Phe[4-(2-aminoethoxy)]-[3-Quin]-[a-MeLys]-[Lys(Ac)]-N-[(D)Leu)]-NH2
B2: Compound No. 6 (peptide)
peptide: Propionyl-[dR][Pen]QTWQ[Pen][AEF][2Nal][Thp]K(Tfa)N[Thp]-NH2
modifications: disulfide 2-7
SMILES: CCC(=O)N[C@H](CCCNC(=N)N)C(=O)N[C@@H]1C(=O)N[C@@H](CCC(N)=O)C(=O)N[C@@H]([C@@H](C)O)C(=O)N[C@@H](Cc2c[nH]c3ccccc23)C(=O)N[C@@H](CCC(N)=O)C(=O)N[C@H](C(=O)N[C@@H](Cc2ccc(OCCN)cc2)C(=O)N[C@@H](Cc2ccc3ccccc3c2)C(=O)NC2(C(=O)N[C@@H](CCCCNC(=O)C(F)(F)F)C(=O)N[C@@H](CC(N)=O)C(=O)NC3(C(N)=O)CCOCC3)CCOCC2)C(C)(C)SSC1(C)C
B3: Compound No. 7 (peptide)
peptide: Propionyl-[dR][Pen]QTWQ[Pen][AEF][2Nal][Thp]K(Piv)N[Thp]-NH2
modifications: disulfide 2-7
SMILES: CCC(=O)N[C@H](CCCNC(=N)N)C(=O)N[C@@H]1C(=O)N[C@@H](CCC(N)=O)C(=O)N[C@@H]([C@@H](C)O)C(=O)N[C@@H](Cc2c[nH]c3ccccc23)C(=O)N[C@@H](CCC(N)=O)C(=O)N[C@H](C(=O)N[C@@H](Cc2ccc(OCCN)cc2)C(=O)N[C@@H](Cc2ccc3ccccc3c2)C(=O)NC2(C(=O)N[C@@H](CCCCNC(=O)C(C)(C)C)C(=O)N[C@@H](CC(N)=O)C(=O)NC3(C(N)=O)CCOCC3)CCOCC2)C(C)(C)SSC1(C)C
B4: Compound No. 111 (peptide)
peptide: Ac-[dR][Pen]NT[Trp(7-Me)]K(Ac)[Pen][AEF][2Nal][Thp]K(Ac)N[αMeF]-NH2
modifications: disulfide 2-7
SMILES: CC(=O)NCCCC[C@@H]1NC(=O)[C@H](Cc2c[nH]c3c(C)cccc23)NC(=O)[C@H]([C@@H](C)O)NC(=O)[C@H](CC(N)=O)NC(=O)[C@@H](NC(=O)[C@@H](CCCNC(=N)N)NC(C)=O)C(C)(C)SSC(C)(C)[C@@H](C(=O)N[C@@H](Cc2ccc(OCCN)cc2)C(=O)N[C@@H](Cc2ccc3ccccc3c2)C(=O)NC2(C(=O)N[C@@H](CCCCNC(C)=O)C(=O)N[C@@H](CC(N)=O)C(=O)N[C@@](C)(Cc3ccccc3)C(N)=O)CCOCC2)NC1=O
B5: Compound No. 8 (peptide)
peptide: Propionyl-[dR][Pen]QTWQ[Pen][AEF][2Nal][Thp]EN[NMeβAla]-NH2
modifications: disulfide 2-7
SMILES: CCC(=O)N[C@H](CCCNC(=N)N)C(=O)N[C@@H]1C(=O)N[C@@H](CCC(N)=O)C(=O)N[C@@H]([C@@H](C)O)C(=O)N[C@@H](Cc2c[nH]c3ccccc23)C(=O)N[C@@H](CCC(N)=O)C(=O)N[C@H](C(=O)N[C@@H](Cc2ccc(OCCN)cc2)C(=O)N[C@@H](Cc2ccc3ccccc3c2)C(=O)NC2(C(=O)N[C@@H](CCC(=O)O)C(=O)N[C@@H](CC(N)=O)C(=O)N(C)CCC(N)=O)CCOCC2)C(C)(C)SSC1(C)C
B6: Compound No. 10 (peptide)
peptide: Propionyl-[dR][Pen]QTWQ[Pen][AEF][2Nal][Thp]EN[Thp]-NH2
modifications: disulfide 2-7
SMILES: CCC(=O)N[C@H](CCCNC(=N)N)C(=O)N[C@@H]1C(=O)N[C@@H](CCC(N)=O)C(=O)N[C@@H]([C@@H](C)O)C(=O)N[C@@H](Cc2c[nH]c3ccccc23)C(=O)N[C@@H](CCC(N)=O)C(=O)N[C@H](C(=O)N[C@@H](Cc2ccc(OCCN)cc2)C(=O)N[C@@H](Cc2ccc3ccccc3c2)C(=O)NC2(C(=O)N[C@@H](CCC(=O)O)C(=O)N[C@@H](CC(N)=O)C(=O)NC3(C(N)=O)CCOCC3)CCOCC2)C(C)(C)SSC1(C)C
B7: Compound No. 3 (peptide)
peptide: Propionyl-[dR][Pen]QTWQ[Pen][AEF][2Nal][Thp]EN[αMeF]-NH2
modifications: disulfide 2-7
SMILES: CCC(=O)N[C@H](CCCNC(=N)N)C(=O)N[C@@H]1C(=O)N[C@@H](CCC(N)=O)C(=O)N[C@@H]([C@@H](C)O)C(=O)N[C@@H](Cc2c[nH]c3ccccc23)C(=O)N[C@@H](CCC(N)=O)C(=O)N[C@H](C(=O)N[C@@H](Cc2ccc(OCCN)cc2)C(=O)N[C@@H](Cc2ccc3ccccc3c2)C(=O)NC2(C(=O)N[C@@H](CCC(=O)O)C(=O)N[C@@H](CC(N)=O)C(=O)N[C@@](C)(Cc3ccccc3)C(N)=O)CCOCC2)C(C)(C)SSC1(C)C
B8: Compound No. 4 (peptide)
peptide: Propionyl-[dR][Pen]QTWQ[Pen][Phe(4-OMe)][2Nal][Thp]EN[Thp]-NH2
modifications: disulfide 2-7
SMILES: CCC(=O)N[C@H](CCCNC(=N)N)C(=O)N[C@@H]1C(=O)N[C@@H](CCC(N)=O)C(=O)N[C@@H]([C@@H](C)O)C(=O)N[C@@H](Cc2c[nH]c3ccccc23)C(=O)N[C@@H](CCC(N)=O)C(=O)N[C@H](C(=O)N[C@@H](Cc2ccc(OC)cc2)C(=O)N[C@@H](Cc2ccc3ccccc3c2)C(=O)NC2(C(=O)N[C@@H](CCC(=O)O)C(=O)N[C@@H](CC(N)=O)C(=O)NC3(C(N)=O)CCOCC3)CCOCC2)C(C)(C)SSC1(C)C
B9: Compound No. 93 (peptide)
peptide: Ac-[dR][Pen]NT[Trp(7-Me)]Q[Pen][AEF][2Nal][Ac5c]EN[αMeF]-NH2
modifications: disulfide 2-7
SMILES: CC(=O)N[C@H](CCCNC(=N)N)C(=O)N[C@@H]1C(=O)N[C@@H](CC(N)=O)C(=O)N[C@@H]([C@@H](C)O)C(=O)N[C@@H](Cc2c[nH]c3c(C)cccc23)C(=O)N[C@@H](CCC(N)=O)C(=O)N[C@H](C(=O)N[C@@H](Cc2ccc(OCCN)cc2)C(=O)N[C@@H](Cc2ccc3ccccc3c2)C(=O)NC2(C(=O)N[C@@H](CCC(=O)O)C(=O)N[C@@H](CC(N)=O)C(=O)N[C@@](C)(Cc3ccccc3)C(N)=O)CCCC2)C(C)(C)SSC1(C)C
B10: Compound No. 94 (peptide)
peptide: Ac-[dR][Pen]NT[Trp(7-Me)]K(Ac)[Pen][AEF][2Nal][Ac5c]EN[αMeF]-NH2
modifications: disulfide 2-7
SMILES: CC(=O)NCCCC[C@@H]1NC(=O)[C@H](Cc2c[nH]c3c(C)cccc23)NC(=O)[C@H]([C@@H](C)O)NC(=O)[C@H](CC(N)=O)NC(=O)[C@@H](NC(=O)[C@@H](CCCNC(=N)N)NC(C)=O)C(C)(C)SSC(C)(C)[C@@H](C(=O)N[C@@H](Cc2ccc(OCCN)cc2)C(=O)N[C@@H](Cc2ccc3ccccc3c2)C(=O)NC2(C(=O)N[C@@H](CCC(=O)O)C(=O)N[C@@H](CC(N)=O)C(=O)N[C@@](C)(Cc3ccccc3)C(N)=O)CCCC2)NC1=O
B11: Compound No. 95 (peptide)
peptide: Ac-[Pen]NTWK(Ac)[Pen][AEF][2Nal][αMeK]K(Ac)N[Thp]-NH2
modifications: disulfide 1-6
SMILES: CC(=O)NCCCC[C@@H]1NC(=O)[C@H](Cc2c[nH]c3ccccc23)NC(=O)[C@H]([C@@H](C)O)NC(=O)[C@H](CC(N)=O)NC(=O)[C@@H](NC(C)=O)C(C)(C)SSC(C)(C)[C@@H](C(=O)N[C@@H](Cc2ccc(OCCN)cc2)C(=O)N[C@@H](Cc2ccc3ccccc3c2)C(=O)N[C@@](C)(CCCCN)C(=O)N[C@@H](CCCCNC(C)=O)C(=O)N[C@@H](CC(N)=O)C(=O)NC2(C(N)=O)CCOCC2)NC1=O
B12: Compound No. 97 (peptide)
peptide: Ac-[dR][Pen]QTWQ[Pen][AEF][2Nal][Thp]EN[αMeF]-NH2
modifications: disulfide 2-7
SMILES: CC(=O)N[C@H](CCCNC(=N)N)C(=O)N[C@@H]1C(=O)N[C@@H](CCC(N)=O)C(=O)N[C@@H]([C@@H](C)O)C(=O)N[C@@H](Cc2c[nH]c3ccccc23)C(=O)N[C@@H](CCC(N)=O)C(=O)N[C@H](C(=O)N[C@@H](Cc2ccc(OCCN)cc2)C(=O)N[C@@H](Cc2ccc3ccccc3c2)C(=O)NC2(C(=O)N[C@@H](CCC(=O)O)C(=O)N[C@@H](CC(N)=O)C(=O)N[C@@](C)(Cc3ccccc3)C(N)=O)CCOCC2)C(C)(C)SSC1(C)C

Tests used:
[1] = target: T1, human IL-23R (interleukin-23 receptor); assay: cell-based or functional assay
[2] = target: T1, human IL-23R (interleukin-23 receptor); assay: cell-based or functional assay; remark: listed apart in the source

Binder | pStat3 HTRF (nM), IC50, DB cells IL23R pSTAT3 cell assay [1] | NK Cell Assay (nM), IC50, IFN-gamma after IL-23 and IL-18 [2] | PBMC pSTAT3 IC50 (nM) [1]
B1 | 0.602 nM | 2.89 nM | 
B2 | 2.46 nM | 16.8 nM | 8.6 nM
B3 | 3.87 nM | 12.6 nM | 8.6 nM
B4 | 1.29 nM | 6.51 nM | 
B5 | 24.6 nM | 72.3 nM | 
[dR][Pen]QTWQ[Pen][AEF][2Nal][Thp]EN[Thp]-NH2 (disulfide 2-7; not fully specified (N-terminus)) [Compound No. 9] | 3.12 nM | 11.6 nM | 29 nM
B6 | 4.16 nM | 8.29 nM | 4.6 nM
B7 | 2.31 nM | 20.1 nM | 40 nM
B8 | 4.17 nM | 32.1 nM | 
B9 |  |  | 4.6 nM
B10 |  |  | 12 nM
B11 |  |  | 22 nM
B12 |  |  | 31 nM
